Results reported in US20260139001A1 (Harvard, published 2026).

Biological target: RBD (Severe acute respiratory syndrome …, UniProt P59594)

B1: Wuhan-NS (VHH72 NoK V104K conjugated with NBD-x; V104NBDxK) (VHH)
VHH: QVQLQESGGGLVQAGGSLRLSCAASGRTFSEYAMGWFRQAPGREREFVATISWSGGSTYYTDSVRGRFTISRDNARNTVYLQMNSLRPDDTAVYYCAAAGLGTKVSEWDYDYDYWGQGTQVTVSS
  EC50: 123 nM
